# Experimental data as given in patent US20180244758A1.
# Molecular target: EBOV GP[change] (Ebola virus) (UniProt Q05320)
# Sequence (Q05320 33-501, chain 1 of 2): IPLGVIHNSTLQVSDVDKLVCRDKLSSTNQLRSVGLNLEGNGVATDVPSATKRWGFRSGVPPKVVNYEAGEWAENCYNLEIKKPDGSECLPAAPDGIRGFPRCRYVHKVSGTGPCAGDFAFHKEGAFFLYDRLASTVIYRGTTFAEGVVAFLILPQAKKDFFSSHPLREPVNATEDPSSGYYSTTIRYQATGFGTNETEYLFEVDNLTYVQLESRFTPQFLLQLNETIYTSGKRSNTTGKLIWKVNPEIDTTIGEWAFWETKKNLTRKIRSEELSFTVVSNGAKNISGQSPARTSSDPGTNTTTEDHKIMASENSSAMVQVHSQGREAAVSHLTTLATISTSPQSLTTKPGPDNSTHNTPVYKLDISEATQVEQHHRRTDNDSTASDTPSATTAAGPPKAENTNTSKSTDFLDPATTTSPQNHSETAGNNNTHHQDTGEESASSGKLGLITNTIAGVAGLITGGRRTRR
# Sequence (Q05320 502-650, chain 2 of 2): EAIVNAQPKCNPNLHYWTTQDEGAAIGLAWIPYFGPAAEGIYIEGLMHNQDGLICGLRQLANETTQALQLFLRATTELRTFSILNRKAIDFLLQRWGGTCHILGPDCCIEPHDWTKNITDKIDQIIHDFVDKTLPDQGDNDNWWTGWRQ
row,Binder,Kd [nM]
1,"mAb PE-87 (antibody, V domains shown) VH: QVQLVQSGVTLVQPGGSLRVSCAASGFTFSSYAMSWVRQAPGKGLEWVSAISGLGGSTYYADSVKGRFTISRDNSKNTLYLQMNSLRAEDTAVYYCAKDHRVWAAGYHFDYWGQGALVTVSS VL: DIVLTQSPSTLSASVGDRVTITCRASQSISSWLAWYQQKPGEAPKLLISDASSLESGVPSRFSGSGSGTEFTLTISSLQPDDFATYYCQQYYSSPTFGGGTKVEIK",< 0.001
2,"PE-87 H108A (antibody, V domains shown) VH: QVQLVQSGVTLVQPGGSLRVSCAASGFTFSSYAMSWVRQAPGKGLEWVSAISGLGGSTYYADSVKGRFTISRDNSKNTLYLQMNSLRAEDTAVYYCAKDHRVWAAGYAFDYWGQGALVTVSS VL: DIVLTQSPSTLSASVGDRVTITCRASQSISSWLAWYQQKPGEAPKLLISDASSLESGVPSRFSGSGSGTEFTLTISSLQPDDFATYYCQQYYSSPTFGGGTKVEIK",18
3,"PE-87 Y111A (antibody, V domains shown) VH: QVQLVQSGVTLVQPGGSLRVSCAASGFTFSSYAMSWVRQAPGKGLEWVSAISGLGGSTYYADSVKGRFTISRDNSKNTLYLQMNSLRAEDTAVYYCAKDHRVWAAGYHFDAWGQGALVTVSS VL: DIVLTQSPSTLSASVGDRVTITCRASQSISSWLAWYQQKPGEAPKLLISDASSLESGVPSRFSGSGSGTEFTLTISSLQPDDFATYYCQQYYSSPTFGGGTKVEIK",5.9
4,"PE-87 G106A (antibody, V domains shown) VH: QVQLVQSGVTLVQPGGSLRVSCAASGFTFSSYAMSWVRQAPGKGLEWVSAISGLGGSTYYADSVKGRFTISRDNSKNTLYLQMNSLRAEDTAVYYCAKDHRVWAAAYHFDYWGQGALVTVSS VL: DIVLTQSPSTLSASVGDRVTITCRASQSISSWLAWYQQKPGEAPKLLISDASSLESGVPSRFSGSGSGTEFTLTISSLQPDDFATYYCQQYYSSPTFGGGTKVEIK",0.03
5,"PE-87 H100A (antibody, V domains shown) VH: QVQLVQSGVTLVQPGGSLRVSCAASGFTFSSYAMSWVRQAPGKGLEWVSAISGLGGSTYYADSVKGRFTISRDNSKNTLYLQMNSLRAEDTAVYYCAKDARVWAAGYHFDYWGQGALVTVSS VL: DIVLTQSPSTLSASVGDRVTITCRASQSISSWLAWYQQKPGEAPKLLISDASSLESGVPSRFSGSGSGTEFTLTISSLQPDDFATYYCQQYYSSPTFGGGTKVEIK",4.5
6,"PE-87 W103A (antibody, V domains shown) VH: QVQLVQSGVTLVQPGGSLRVSCAASGFTFSSYAMSWVRQAPGKGLEWVSAISGLGGSTYYADSVKGRFTISRDNSKNTLYLQMNSLRAEDTAVYYCAKDHRVAAAGYHFDYWGQGALVTVSS VL: DIVLTQSPSTLSASVGDRVTITCRASQSISSWLAWYQQKPGEAPKLLISDASSLESGVPSRFSGSGSGTEFTLTISSLQPDDFATYYCQQYYSSPTFGGGTKVEIK",1.3
7,"PE-87 R101A (antibody, V domains shown) VH: QVQLVQSGVTLVQPGGSLRVSCAASGFTFSSYAMSWVRQAPGKGLEWVSAISGLGGSTYYADSVKGRFTISRDNSKNTLYLQMNSLRAEDTAVYYCAKDHAVWAAGYHFDYWGQGALVTVSS VL: DIVLTQSPSTLSASVGDRVTITCRASQSISSWLAWYQQKPGEAPKLLISDASSLESGVPSRFSGSGSGTEFTLTISSLQPDDFATYYCQQYYSSPTFGGGTKVEIK",9.4
8,"PE-87 F109A (antibody, V domains shown) VH: QVQLVQSGVTLVQPGGSLRVSCAASGFTFSSYAMSWVRQAPGKGLEWVSAISGLGGSTYYADSVKGRFTISRDNSKNTLYLQMNSLRAEDTAVYYCAKDHRVWAAGYHADYWGQGALVTVSS VL: DIVLTQSPSTLSASVGDRVTITCRASQSISSWLAWYQQKPGEAPKLLISDASSLESGVPSRFSGSGSGTEFTLTISSLQPDDFATYYCQQYYSSPTFGGGTKVEIK",37
9,"PE-87 D99A (antibody, V domains shown) VH: QVQLVQSGVTLVQPGGSLRVSCAASGFTFSSYAMSWVRQAPGKGLEWVSAISGLGGSTYYADSVKGRFTISRDNSKNTLYLQMNSLRAEDTAVYYCAKAHRVWAAGYHFDYWGQGALVTVSS VL: DIVLTQSPSTLSASVGDRVTITCRASQSISSWLAWYQQKPGEAPKLLISDASSLESGVPSRFSGSGSGTEFTLTISSLQPDDFATYYCQQYYSSPTFGGGTKVEIK",74
10,"PE-87 V102A (antibody, V domains shown) VH: QVQLVQSGVTLVQPGGSLRVSCAASGFTFSSYAMSWVRQAPGKGLEWVSAISGLGGSTYYADSVKGRFTISRDNSKNTLYLQMNSLRAEDTAVYYCAKDHRAWAAGYHFDYWGQGALVTVSS VL: DIVLTQSPSTLSASVGDRVTITCRASQSISSWLAWYQQKPGEAPKLLISDASSLESGVPSRFSGSGSGTEFTLTISSLQPDDFATYYCQQYYSSPTFGGGTKVEIK",4
11,"PE-87 Y107A (antibody, V domains shown) VH: QVQLVQSGVTLVQPGGSLRVSCAASGFTFSSYAMSWVRQAPGKGLEWVSAISGLGGSTYYADSVKGRFTISRDNSKNTLYLQMNSLRAEDTAVYYCAKDHRVWAAGAHFDYWGQGALVTVSS VL: DIVLTQSPSTLSASVGDRVTITCRASQSISSWLAWYQQKPGEAPKLLISDASSLESGVPSRFSGSGSGTEFTLTISSLQPDDFATYYCQQYYSSPTFGGGTKVEIK",30
12,"PE-87 D110A (antibody, V domains shown) VH: QVQLVQSGVTLVQPGGSLRVSCAASGFTFSSYAMSWVRQAPGKGLEWVSAISGLGGSTYYADSVKGRFTISRDNSKNTLYLQMNSLRAEDTAVYYCAKDHRVWAAGYHFAYWGQGALVTVSS VL: DIVLTQSPSTLSASVGDRVTITCRASQSISSWLAWYQQKPGEAPKLLISDASSLESGVPSRFSGSGSGTEFTLTISSLQPDDFATYYCQQYYSSPTFGGGTKVEIK",1.3
